Measurements from US20020137138A1.

Biological target: human short form of the 5-HT3-A receptor (Genbank accession #D49394) (human) (UniProt P46098)
Assay: cell-based or functional assay

Chain of human short form of the 5-HT3-A receptor (Genbank accession #D49394) (human) (P46098 24-478): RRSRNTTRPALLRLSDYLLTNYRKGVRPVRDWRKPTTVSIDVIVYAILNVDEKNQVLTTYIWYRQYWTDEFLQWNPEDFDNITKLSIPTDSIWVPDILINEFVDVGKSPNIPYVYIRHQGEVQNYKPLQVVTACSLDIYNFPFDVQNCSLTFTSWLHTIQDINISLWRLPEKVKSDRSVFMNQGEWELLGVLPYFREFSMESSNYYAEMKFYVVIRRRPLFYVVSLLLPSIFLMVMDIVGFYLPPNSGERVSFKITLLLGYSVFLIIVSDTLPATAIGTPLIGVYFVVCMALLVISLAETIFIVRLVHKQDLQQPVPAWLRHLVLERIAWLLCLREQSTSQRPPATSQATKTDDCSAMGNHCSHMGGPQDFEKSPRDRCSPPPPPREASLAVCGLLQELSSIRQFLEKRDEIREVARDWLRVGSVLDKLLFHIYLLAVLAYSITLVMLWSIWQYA

human 5-HT3-C (human serotonin 5-HT3 receptor modifier subunit 5-HT3-C) (from UniProt Q8WXA8 28-447)
5-HT response, oocytes at a 1.8x fold 5-HT3-C to 5-HT3-A cRNA concentration: 20 % diminished | peak current to 5-HT, oocytes injected with 5-HT3-C and 5-HT3-A(short) at a ratio of 2:1: -0.028 nA | peak response to 10 µM 5-HT (two-electrode voltage clamp, Xenopus oocytes co-injected with 2-fold more 5-HT3-C cRNA, 0.67 ng): 10 % of control | response to 10 µM 5-HT, oocytes injected with 5-HT3-C:5-HT3-A(short) at 10:1 (3.35 ng : 0.33 ng cRNA): -0.01 nA
